Experimental data reported in patent publication US20200199241A1 (Chugai, published 2020).

Target: T1, soluble human FcRn complexed with β2-microglobulin (human, UniProt P61769 21-119, limits assumed)
T1 construct: also called hFcRn
Test: Biacore SPR, pH 7.0;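 further: test antibodies captured on a Protein L chip with human FcRn flowed over as analyte, KD obtained as the ratio of dissociation to association rate constants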

Row | Binder | Kd [nM]
1 | IgG1-F1216 (antibody, EU numbering; copies: 2 + 2) heavy: QVQLQESGPGLVKPSETLSLTCAVSGHSISHDHAWSWVRQPPGEGLEWIGFISYSGITNYNPSLQGRVTISRDNSKNTLYLQMNSLRAEDTAVYYCARSLARTTAMDYWGEGTLVTVSSASTKGPSVFPLAPSSKSTSGGTAALGCLVKDYFPEPVTVSWNSGALTSGVHTFPAVLQSSGLYSLSSVVTVPSSSLGTQTYICNVNHKPSNTKVDKKVEPKSCDKTHTCPPCPAPELLGGPSVFLFPPKPKDTSYISRTPEVTCVVVDVSHEDPEVKFNWYVDGVEVHNAKTKPREEQYNSTYRVVSVLTVLHQDWLNGKEYKCKVSNKALPAPIEKTISKAKGQPREPQVYTLPPSRDELTKNQVSLTCLVKGFYPSDIAVEWESNGQPENNYKTTPPVLDSDGSFFLYSKLTVDKSRWQQGNVFSCSVMHEALHYHVTQKSLSLSP light: not shown | 1160
2 | IgG1-F1229 (antibody, EU numbering; copies: 2 + 2) heavy: QVQLQESGPGLVKPSETLSLTCAVSGHSISHDHAWSWVRQPPGEGLEWIGFISYSGITNYNPSLQGRVTISRDNSKNTLYLQMNSLRAEDTAVYYCARSLARTTAMDYWGEGTLVTVSSASTKGPSVFPLAPSSKSTSGGTAALGCLVKDYFPEPVTVSWNSGALTSGVHTFPAVLQSSGLYSLSSVVTVPSSSLGTQTYICNVNHKPSNTKVDKKVEPKSCDKTHTCPPCPAPELLGGPSVFLFPPKPKDTLYVSRTPEVTCVVVDVSHEDPEVKFNWYVDGVEVHNAKTKPREEQYNSTYRVVSVLTVLHQDWLNGKEYKCKVSNKALPAPIEKTISKAKGQPREPQVYTLPPSRDELTKNQVSLTCLVKGFYPSDIAVEWESNGQPENNYKTTPPVLDSDGSFFLYSKLTVDKSRWQQGNVFSCSVMHEALHYHVTQKSLSLSP light: not shown | 2810
3 | IgG1-F1231 (antibody, EU numbering; copies: 2 + 2) heavy: QVQLQESGPGLVKPSETLSLTCAVSGHSISHDHAWSWVRQPPGEGLEWIGFISYSGITNYNPSLQGRVTISRDNSKNTLYLQMNSLRAEDTAVYYCARSLARTTAMDYWGEGTLVTVSSASTKGPSVFPLAPSSKSTSGGTAALGCLVKDYFPEPVTVSWNSGALTSGVHTFPAVLQSSGLYSLSSVVTVPSSSLGTQTYICNVNHKPSNTKVDKKVEPKSCDKTHTCPPCPAPELLGGPSVFLFPPKPKDTLYISRTPEVTCVVVDVSHEDPEVKFNWYVDGVEVHNAKTKPREEQYNSTYRVVSVLTVLHQDWLNGKEYKCKVSNKALPAPIEKTISKAKGQPREPQVYTLPPSRDELTKNQVSLTCLVKGFYPSDIAVEWESNGQPENNYKTTPPVLDSDGSFFLYSKLTVDKSRWQQGNVFSCSVMHEALHYHVTKKELSLSP light: not shown | 97.3
4 | IgG1-F1230 (antibody, EU numbering; copies: 2 + 2) heavy: QVQLQESGPGLVKPSETLSLTCAVSGHSISHDHAWSWVRQPPGEGLEWIGFISYSGITNYNPSLQGRVTISRDNSKNTLYLQMNSLRAEDTAVYYCARSLARTTAMDYWGEGTLVTVSSASTKGPSVFPLAPSSKSTSGGTAALGCLVKDYFPEPVTVSWNSGALTSGVHTFPAVLQSSGLYSLSSVVTVPSSSLGTQTYICNVNHKPSNTKVDKKVEPKSCDKTHTCPPCPAPELLGGPSVFLFPPKPKDTLYISRTPEVTCVVVDVSHEDPEVKFNWYVDGVEVHNAKTKPREEQYNSTYRVVSVLTVLHQDWLNGKEYKCKVSNKALPAPIEKTISKAKGQPREPQVYTLPPSRDELTKNQVSLTCLVKGFYPSDIAVEWESNGQPENNYKTTPPVLDSDGSFFLYSKLTVDKSRWQQGNVFSCSVMHEALHYHVTRKDLSLSP light: not shown | 112
5 | IgG1-F1217 (antibody, EU numbering; copies: 2 + 2) heavy: QVQLQESGPGLVKPSETLSLTCAVSGHSISHDHAWSWVRQPPGEGLEWIGFISYSGITNYNPSLQGRVTISRDNSKNTLYLQMNSLRAEDTAVYYCARSLARTTAMDYWGEGTLVTVSSASTKGPSVFPLAPSSKSTSGGTAALGCLVKDYFPEPVTVSWNSGALTSGVHTFPAVLQSSGLYSLSSVVTVPSSSLGTQTYICNVNHKPSNTKVDKKVEPKSCDKTHTCPPCPAPELLGGPSVFLFPPKPKDTTYISRTPEVTCVVVDVSHEDPEVKFNWYVDGVEVHNAKTKPREEQYNSTYRVVSVLTVLHQDWLNGKEYKCKVSNKALPAPIEKTISKAKGQPREPQVYTLPPSRDELTKNQVSLTCLVKGFYPSDIAVEWESNGQPENNYKTTPPVLDSDGSFFLYSKLTVDKSRWQQGNVFSCSVMHEALHYHVTQKSLSLSP light: not shown | 1140
6 | IgG1-F1218 (antibody, EU numbering; copies: 2 + 2) heavy: QVQLQESGPGLVKPSETLSLTCAVSGHSISHDHAWSWVRQPPGEGLEWIGFISYSGITNYNPSLQGRVTISRDNSKNTLYLQMNSLRAEDTAVYYCARSLARTTAMDYWGEGTLVTVSSASTKGPSVFPLAPSSKSTSGGTAALGCLVKDYFPEPVTVSWNSGALTSGVHTFPAVLQSSGLYSLSSVVTVPSSSLGTQTYICNVNHKPSNTKVDKKVEPKSCDKTHTCPPCPAPELLGGPSVFLFPPKPKDTVYISRTPEVTCVVVDVSHEDPEVKFNWYVDGVEVHNAKTKPREEQYNSTYRVVSVLTVLHQDWLNGKEYKCKVSNKALPAPIEKTISKAKGQPREPQVYTLPPSRDELTKNQVSLTCLVKGFYPSDIAVEWESNGQPENNYKTTPPVLDSDGSFFLYSKLTVDKSRWQQGNVFSCSVMHEALHYHVTQKSLSLSP light: not shown | 251

More lines, now with the values ahead:

Row | Kd [nM] | Binder
7 | 125 | IgG1-F1243 (antibody, EU numbering; copies: 2 + 2) heavy: QVQLQESGPGLVKPSETLSLTCAVSGHSISHDHAWSWVRQPPGEGLEWIGFISYSGITNYNPSLQGRVTISRDNSKNTLYLQMNSLRAEDTAVYYCARSLARTTAMDYWGEGTLVTVSSASTKGPSVFPLAPSSKSTSGGTAALGCLVKDYFPEPVTVSWNSGALTSGVHTFPAVLQSSGLYSLSSVVTVPSSSLGTQTYICNVNHKPSNTKVDKKVEPKSCDKTHTCPPCPAPELRGGPKVFLFPPKPKDTLYITRTPEVTCVVVDVSHEDPEVKFNWYVDGVEVHNAKTKPREEQYNSTYRVVSVLTVLHQDWLNGKEYKCKVSNKALPAPIEKTISKAKGQPREPQVYTLPPSRDELTKNQVSLTCLVKGFYPSDIAVEWESNGQPENNYKTTPPVLDSDGSFFLYSKLTVDKSRWQQGNVFSCSVMHEALHYHVTRKELSLSP light: not shown
8 | 102 | IgG1-F1244 (antibody, EU numbering; copies: 2 + 2) heavy: QVQLQESGPGLVKPSETLSLTCAVSGHSISHDHAWSWVRQPPGEGLEWIGFISYSGITNYNPSLQGRVTISRDNSKNTLYLQMNSLRAEDTAVYYCARSLARTTAMDYWGEGTLVTVSSASTKGPSVFPLAPSSKSTSGGTAALGCLVKDYFPEPVTVSWNSGALTSGVHTFPAVLQSSGLYSLSSVVTVPSSSLGTQTYICNVNHKPSNTKVDKKVEPKSCDKTHTCPPCPAPELRGGPKVFLFPPKPKDTLYISREPEVTCVVVDVSHEDPEVKFNWYVDGVEVHNAKTKPREEQYNSTYRVVSVLTVLHQDWLNGKEYKCKVSNKALPAPIEKTISKAKGQPREPQVYTLPPSRDELTKNQVSLTCLVKGFYPSDIAVEWESNGQPENNYKTTPPVLDSDGSFFLYSKLTVDKSRWQQGNVFSCSVMHEALHYHVTRKELSLSP light: not shown
9 | 97.9 | IgG1-F1232 (antibody, EU numbering; copies: 2 + 2) heavy: QVQLQESGPGLVKPSETLSLTCAVSGHSISHDHAWSWVRQPPGEGLEWIGFISYSGITNYNPSLQGRVTISRDNSKNTLYLQMNSLRAEDTAVYYCARSLARTTAMDYWGEGTLVTVSSASTKGPSVFPLAPSSKSTSGGTAALGCLVKDYFPEPVTVSWNSGALTSGVHTFPAVLQSSGLYSLSSVVTVPSSSLGTQTYICNVNHKPSNTKVDKKVEPKSCDKTHTCPPCPAPELLGGPSVFLFPPKPKDTLYISRTPEVTCVVVDVSHEDPEVKFNWYVDGVEVHNAKTKPREEQYNSTYRVVSVLTVLHQDWLNGKEYKCKVSNKALPAPIEKTISKAKGQPREPQVYTLPPSRDELTKNQVSLTCLVKGFYPSDIAVEWESNGQPENNYKTTPPVLDSDGSFFLYSKLTVDKSRWQQGNVFSCSVMHEALHYHVTKKDLSLSP light: not shown
